The source of these data is the supplement of paper PMC9170038.

This data set has as its system MS2 coat protein. Nature of the data set: apparent KD of MS2 coat protein; designed switch direction (-1 OFF switch, 1 ON switch): -1; higher = weaker reporter binding. In short, it runs like this: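 SNAP-549-labelled MS2 coat protein was titrated, doubling from 0.7 or 1.5 nM to 3 µM, over designed RNA switches transcribed on Illumina chips by stalled E. coli RNA polymerase. Runs were done without input, with 200 uM small-molecule ligand, or with an oligonucleotide input. Apparent KD is the per-design median over clusters of curve-fitted normalised fluorescence.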

[1] abbreviates: input ligand: microRNA oligo, concentration not stated.
The mark [2] stands for this setting: Eterna round: R95, input ligand: FMN 200 uM.
Where [3] appears, read: Eterna round: R95, input ligand: microRNA oligo, concentration not stated.
Setting [4] is: Eterna round: R95, input ligand: none.

Regarding “GUCGUGCGGCUUUGCUGUACGAGUACAUGAGGAUCACCCAUGUAGGAUAUGGCACGCUUUGCGUGCCAGAAGGGCGUGCGUUGG [Excl-NG3-LRO10] (Eterna round: R96, puzzle: Exclusion NG 3)”, the “apparent KD of MS2 coat protein” value by setting is: (input ligand: FMN 200 uM) 0.0351 µM; under setting [1], 0.0215 µM; (input ligand: none) 0.0284 µM.

For the sequence “AGGGUAAAGUUAGGAUAUGCGAAUAAUCCAGACGCAGAAGGAACAGGUCGCAUGUGAGUCACAUGAGGAUCACCCAUGUAACUA [Ceissoar] (Eterna round: R96, puzzle: Exclusion NG 1)”, the “apparent KD of MS2 coat protein” value is 0.143 µM (input ligand: FMN 200 uM), 0.0296 µM under setting [1] and 0.0361 µM (input ligand: none).

With “UUUAAUUUUUUUUUUUUACAAGCUUUUUGCUCGUCUUAUACAUGAGGAUCACCCAUGUAGGUGGAGGAUAAAUUAUC [JMF 36] (puzzle: Sensor v3, turn-off variant 2)”, the “apparent KD of MS2 coat protein” value by setting is: under setting [2], 0.0235 µM; under setting [3], 0.0561 µM; under setting [4], 0.0255 µM.

On to “GCGGAGAGAGAAGGAUAUUGAAAUGCUUCUACAUGAGGAUCACCCAUGUUCGGCAGACAUGGGACCAAGAAGGUCUAUGUCGCG [Eternabot solution 27] (Eterna round: R96, puzzle: Exclusion NG 2)”, for which the “apparent KD of MS2 coat protein” value runs as follows: (input ligand: FMN 200 uM) 0.0702 µM; under setting [1], 0.0404 µM; (input ligand: none) 0.0554 µM.

With “UCCUCACAUGAGGAUCACCCAUGUUAGGAUAUCUUAUAGAGCUUGAGACAGUUCUUUAAGAGAAGGAACUGGGC [Exclusion 1 (MOD2.2 of Edarti)] (Eterna round: R97, puzzle: Exclusion 1)”, the “apparent KD of MS2 coat protein” value (input ligand: FMN 200 uM) turned out to be 0.12 µM and the “apparent KD of MS2 coat protein” value (input ligand: none) turned out to be 0.115 µM.

As for “CCUCCCUGAGGAUAUCCACCCUCAUACAUGAGGAUCACCCAUGUUCAACCCUGGGUUCCCGGAGAAGGCAGUUUCC [Megrez-2.4] (Eterna round: R97, puzzle: Exclusion 5)”, the “apparent KD of MS2 coat protein” value was 0.226 µM (input ligand: FMN 200 uM) and 0.235 µM (input ligand: none).

Consider “AGUUGCGCAGGAUAUACAUGAGGAUCACCCAUGUGAGAGAAAUAAGUGAGGAAGAAAAGUAGAAGGGCGUGACG [Mat - Exclusion 3 - Mod of Salish D73] (puzzle: Exclusion 3)”, for which the “apparent KD of MS2 coat protein” value runs as follows: under setting [2], 0.281 µM; under setting [3], 0.0538 µM; under setting [4], 0.0573 µM.

Consider “CGAAUUCGUUAGGAUAUGAGGCAGAGGUCCGCCUCAGAAGGAAUGACAUGAGGAUCACCCAUGUAGACCCAAGG [Eternabot (Original) Solution 1] (Eterna round: R97, puzzle: Exclusion 6)”, for which the “apparent KD of MS2 coat protein” value is, setting by setting: (input ligand: FMN 200 uM) 0.0189 µM; (input ligand: none) 0.0191 µM.

As for “UCUUAUCUAUAGGAUAUAGGAGCAGAAUUGCGAUUAGAAGGAUGGACAUGAGGAUCACCCAUGUGCAUGGGCUU [EX6 B.6] (Eterna round: R97, puzzle: Exclusion 6)”, the “apparent KD of MS2 coat protein” value by setting is: (input ligand: FMN 200 uM) 0.0179 µM; (input ligand: none) 0.0306 µM.

“CUCCUCAUGACGCCCAACCACAUGAGGAUCACCCAUGUGCAGGCUUUUUGUCGUCUUAUAAUAAAACCGAGGAUGCG [Edusveti] (puzzle: Sensor v3, turn-off variant 1)”: the “apparent KD of MS2 coat protein” value under setting [2] is 0.0133 µM, the “apparent KD of MS2 coat protein” value under setting [3] amounted to 0.0494 µM and the “apparent KD of MS2 coat protein” value under setting [4] worked out at 0.013 µM.

For “CUUUCGUGAGGAUAUGUGGCUUCGAUCGUGAGAUCGAGGCAACAGAAGGCACAUGAGGAUCACCCAUGUUCCUC [salish99_ex4_r4_207] (Eterna round: R97, puzzle: Exclusion 4)”, the “apparent KD of MS2 coat protein” value by setting is: (input ligand: FMN 200 uM) 0.546 µM; (input ligand: none) 0.0405 µM.

As to “AUAAUUAGAGGAUAUGGUACAUUGCACAUGAGGAUCACCCAUGUAAGGUGACCCAUGUCGCCAGAAGGCUGAUAUG [Eternabot (L2) Solution 46] (Eterna round: R97, puzzle: Exclusion 5)”, the “apparent KD of MS2 coat protein” value turned out to be 3.46 µM (input ligand: FMN 200 uM) and 0.46 µM (input ligand: none).

Take “AGCAUGCUAGGAUAUACGGGACAUUAGGGUUCGUCGUAUGGACAUGAGGAUCACCCAUGUAGAAGGAGCGUGCA [Mat - Exclusion 2 - Mod of Hyphema - D93] (puzzle: Exclusion 2)”: the “apparent KD of MS2 coat protein” value under setting [3] is 0.0199 µM.

Regarding “GUAAAGUGAGGAUAUGGUAAAUUAAUUAUUUAUUAAUUAAUCCAGAAGGCACAUGAGGAUCACCCAUGUAAAUG [Mat - Exclusion 4 - D94] (puzzle: Exclusion 4)”, the “apparent KD of MS2 coat protein” value under setting [3] turned out to be 0.0265 µM.

Regarding “ACGCGUGGCUAGGAUAUGCAGCUAUCUGGCCAGGCAGAAGGAGCCACAUGAGGAUCACCCAUGUGGUGAUCCUC [eternacac ex6r4 sub3] (Eterna round: R97, puzzle: Exclusion 6)”, the “apparent KD of MS2 coat protein” value stood at 0.0121 µM (input ligand: FMN 200 uM) and 0.0119 µM (input ligand: none).

As for “AUUCCAACUUGAGGAUAUUAGUGGAACAGCCACUGAGAAGGCAGAUAACACCCUCAUAAACAUGAGGAUCACCCAUGUAGGAGA [Eternabot solution 44] (Eterna round: R96, puzzle: Exclusion NG 1)”, the “apparent KD of MS2 coat protein” value (input ligand: FMN 200 uM) came to 0.132 µM, the “apparent KD of MS2 coat protein” value under setting [1] is 0.0781 µM and the “apparent KD of MS2 coat protein” value (input ligand: none) was found to be 0.0863 µM.

Take “UAUUAGCAAGUGAGAUCCGACAUGAGGAUCACCCAUGUGCUCGUCUUAUAAGGUAAUAUAAGAAAACUUAUAUUACC [Elimod 6 - Jieux - Sensor, turn-off variant 1] (Eterna round: R97, puzzle: Sensor, turn-off variant 1)”: the “apparent KD of MS2 coat protein” value runs as follows: (input ligand: FMN 200 uM) 0.207 µM; (input ligand: none) 0.233 µM.

As for “AAAAUAAACCUCAUUUAAAACAUGAGGAUCACCCAUGUAAAAUGCUCGUCUUAUUAAAUGUACUCCUAGUUCGUACA [My solution] (Eterna round: R97, puzzle: Sensor, turn-off variant 1)”, the “apparent KD of MS2 coat protein” value was determined as 0.178 µM (input ligand: FMN 200 uM) and 0.251 µM (input ligand: none).

On to “UACAUGAGGAUCACCCAUGUUUUGUCGUGUAUGGUAUUUAUCUAGGAUAUCAAUGUAUUAAUUUAUGAGAAGGAGAAUAUUAAU [JMF's solution 44] (Eterna round: R96, puzzle: Exclusion NG 3)”, for which the “apparent KD of MS2 coat protein” value is, setting by setting: (input ligand: FMN 200 uM) 0.042 µM; under setting [1], 0.0273 µM; (input ligand: none) 0.0432 µM.

With “AGUACGAUGCGUGCUGACAUGCGUCGUGCAGCAGGUGAUACAUGAGGAUCACCCAUGUCCUCAUUUGCUCGUCUUGA [Mat - Sensor v3 - Turn-off var 2 - D19] (puzzle: Sensor v3, turn-off variant 2)”, the “apparent KD of MS2 coat protein” value was 0.0285 µM under setting [2], 0.499 µM under setting [3] and 0.0284 µM under setting [4].

As to “AGUCAGGCGGUAGGAUAUCCAUAUCGAGUGACCCUUUCAUAACAUGAGGAUCACCCAUGUCGGUGGGAGAAGGGCCGUACGGCG [JL ViennaUCT Atra mod 4] (Eterna round: R96, puzzle: Exclusion NG 2)”, the “apparent KD of MS2 coat protein” value is, setting by setting: (input ligand: FMN 200 uM) 0.203 µM; under setting [1], 0.0842 µM; (input ligand: none) 0.103 µM.

For “AUUAUACAUGUAGGAUAUCUGCACGUUUAGUGCAGAGAAGGACAUGAGGAUCACCCAUGUAGAUCAAUAAUAAUUAAUUUAAUU [ENG1/6-B2] (Eterna round: R96, puzzle: Exclusion NG 1)”, the “apparent KD of MS2 coat protein” value runs as follows: (input ligand: FMN 200 uM) 0.889 µM; under setting [1], 0.203 µM; (input ligand: none) 0.202 µM.

As to “CUCGUGCAGCAAAGCUGUACGAGUACAUGAGGAUCACCCAUGUAGGAUAUGGUACGCAAAGCGUGCCAGAAGGACGUGAGUUAG [Mat - Exclusion NG 3 - Mod of JL - D95] (Eterna round: R96, puzzle: Exclusion NG 3)”, the “apparent KD of MS2 coat protein” value runs as follows: (input ligand: FMN 200 uM) 0.171 µM; under setting [1], 0.0376 µM; (input ligand: none) 0.059 µM.

Turning to “UUCGCAAAAUUAGGUCCUAACAUGAGGAUCACCCAUGUUCUAGGUAAGUGCCUCCGCCCGCUAACUGUUCGUCUUGU [Eternabot (L1) Solution 36] (Eterna round: R97, puzzle: Sensor, turn-off variant 1)”, the “apparent KD of MS2 coat protein” value is 0.0231 µM (input ligand: FMN 200 uM) and 0.0249 µM (input ligand: none).

On to “AAUUUACAUGAGGAUCACCCAUGUGAGGAUAUAUGUAAACAAUUUUUAUUCAUCAAACAUAGAAGGCGCGUGAU [JR_Exc1_Sub044] (Eterna round: R97, puzzle: Exclusion 1)”, for which the “apparent KD of MS2 coat protein” value (input ligand: FMN 200 uM) was determined as 0.0413 µM and the “apparent KD of MS2 coat protein” value (input ligand: none) was 0.0426 µM.

Consider “ACAUGAGGAUCACCCAUGUGAAAAGAAUGGCUGACACAGAGUUAGGAUAUGCGUGCAUAUCUAACGCAGAAGGGACAUGACUGG [Deportation 82 - Jieux - Exclusion NG 3] (Eterna round: R96, puzzle: Exclusion NG 3)”, for which the “apparent KD of MS2 coat protein” value reads like this: (input ligand: FMN 200 uM) 0.0337 µM; under setting [1], 0.0339 µM; (input ligand: none) 0.0302 µM.

For “CAGUACUGAGGAUAUACAUGAGGAUCACCCAUGUGUGUGAAUUUUAUGUGGUCGUAAUGUAGAAGGCAGUACUG [JR_Ex3_Sub027] (Eterna round: R97, puzzle: Exclusion 3)”, the “apparent KD of MS2 coat protein” value runs as follows: (input ligand: FMN 200 uM) 0.407 µM; (input ligand: none) 0.0863 µM.

As to “CUGUUUUUCGCAGGAUAUGCUCCUCCAUUAUUUGCAGAAGGGCGUUAAACAUGAGGAUCACCCAUGUAUGGUAAUGACUAUUUC [JR_ExcNG1_Sub065] (Eterna round: R96, puzzle: Exclusion NG 1)”, the “apparent KD of MS2 coat protein” value reads like this: (input ligand: FMN 200 uM) 0.125 µM; under setting [1], 0.0436 µM; (input ligand: none) 0.0407 µM.

With “UGUCAGAUGGUAGGAUAUCCAUAUCGAGUGUCCCUUUCCUAACAUGAGGAUCACCCAUGUCGGUGGGAGAAGGGCCGUAUGGUG [salish99_ExNG02_R04_034] (Eterna round: R96, puzzle: Exclusion NG 2)”, the “apparent KD of MS2 coat protein” value runs as follows: (input ligand: FMN 200 uM) 0.0125 µM; under setting [1], 0.0115 µM; (input ligand: none) 0.0141 µM.
